{
  "source": "paper PMC3518626",
  "about": "(Current biology : CB, 2012)",
  "proteins": {"B1": {"name": "Kip2-EGFP (natural protein, yeast, UniProt P28743 1-706, looked up)", "chain": "MIQKMSPSLRRPSTRSSSGSSNIPQSPSVRSTSSFSNLTRNSIRSTSNSGSQSISASSTRSNSPLRSVSAKSDPFLHPGRIRIRRSDSINNNSRKNDTYTGSITVTIRPKPRSVGTSRDHVGLKSPRYSQPRSNSHHGSNTFVRDPWFITNDKTIVHEEIGEFKFDHVFASHCTNLEVYERTSKPMIDKLLMGFNATIFAYGMTGSGKTFTMSGNEQELGLIPLSVSYLFTNIMEQSMNGDKKFDVIISYLEIYNERIYDLLESGLEESGSRISTPSRLYMSKSNSNGLGVELKIRDDSQYGVKVIGLTERRCESSEELLRWIAVGDKSRKIGETDYNARSSRSHAIVLIRLTSTNVKNGTSRSSTLSLCDLAGSERATGQQERRKEGSFINKSLLALGTVISKLSADKMNSVGSNIPSPSASGSSSSSGNATNNGTSPSNHIPYRDSKLTRLLQPALSGDSIVTTICTVDTRNDAAAETMNTLRFASRAKNVALHVSKKSIISNGNNDGDKDRTIELLRRQLEEQRRMISELKNRSNIGEPLTKSSNESTYKDIKATGNDGDPNLALMRAENRVLKYKLENCEKLLDKDVVDLQDSEIMEIVEMLPFEVGTLLETKFQGLESQIRQYRKYTQKLEDKIMALEKSGHTAMSLTGCDGTEVIELQKMLERKDKMIEALQSAKRLRDRALKPLINTQQSPHPVVDNDK"}},
  "biological_target": "the molecule itself",
  "data": [
    {"protein": "B1", "values": [
      {"measurement": "stoichiometry N", "result": 2}
    ]}
  ]
}
